Results from patent publication US20240270826A1 (NATIONAL RESEARCH COUNCIL OF CANADA, published 2024).

Columns and labels:
[1] = biological target: T1, SARS-CoV-2 S2 (aa686-1208) (Wuhan) (SARS-CoV-2 Wuhan, UniProt P0DTC2 686-1208); experiment: SPR single-cycle kinetics, VHH over immobilized S2 [cont.]
T1 construct: NRC; FLAG, 6xHis tags

[2] = biological target: Human SARS-CoV-2_Wuhan S (SmT1) (SARS-CoV-2 (Wuhan), UniProt P0DTC2 14-1208); experiment: tandem SPR, immobilized S, orientation 1: VHH alone
[3] = biological target: T2, SARS-CoV-2 S1 (aa16-685) (Wuhan) (SARS-CoV-2 Wuhan, UniProt P0DTC2 16-685); experiment: ELISA, coated antigen, apparent EC50
T2 construct: NRC; FLAG, 6xHis tags

[4] = biological target: T3, SARS-CoV-2 spike trimer S (Wuhan, SmT1) (SARS-CoV-2 Wuhan); experiment: ELISA, coated antigen, apparent EC50
T3 construct: extracellular domain

[5] = biological target: SARS-CoV-2 S1-NTD (aa16-305) (SARS-CoV-2 Wuhan, UniProt P0DTC2 16-305); experiment: ELISA, coated antigen
[6] = biological target: T1, SARS-CoV-2 S2 (aa686-1208) (Wuhan); experiment: SPR; 'nd' read as spanning the three S1 columns, the dashes as the S2 block
[7] = biological target: SARS-CoV-2 RBD (aa319-541) (Wuhan), monomeric (SARS-CoV-2 Wuhan, UniProt P0DTC2 319-541); experiment: SPR, monomeric RBD over captured VHH-Fc
[8] = biological target: T2, SARS-CoV-2 S1 (aa16-685) (Wuhan); experiment: SPR single-cycle kinetics, VHH over immobilized S1 [cont.]

B1: NRCoV2-07 VHH (VHH)
VHH: QVQLVQSGGGLVQPGGSLRLSCAASGVTLDYYAIGWFRQAPGKEREAVSCISSNGRRNHYVASVRGRFTISRDNAKSTVYLQMNSLKPEDTAVYYCAAVQDVHGDNYYCTSPNEYNVWGQGTQVTVSS
B1 was tested, and the binding result [1] was “no binding (tested: 20 nM)” and the “End 1st inj (RU)” value [2] was 19.1 RU.

B2: NRCoV2-02 VHH-Fc (Fc fusion)
chain: EVQLVESGGGLVQAGGSLRLSCAASGFTFSNYAMNWVRQAPGKGLEWVSGISGRGDDTRYADSVKGRFTISRDNAKNTLFLQMRSLRPEDTGVYRCTKGPDLYYFGSGYSDRGQGTQVTVSS
notes: bivalent
B2 was tested, and the EC50 [3] was 0.11 nM, the EC50 [4] was 0.1 nM and the binding result [5] was “no binding”.

B3: NRCoV2-12 VHH-Fc (Fc fusion)
chain: EVQLQQSGGGLVQAGGSLRLSCAASGRTFRNYVMGWFRQAPQAPGKDHEFVAAISWGGTEIYYADSVKGRFTISRDNAKNTVYLQMNSLKPEDTAVYYCAADRGLSYYYTRTTEYNYWGQGTQVTVSS
notes: bivalent
In the case of B3, the binding result [6] is reported as “no binding”, the Kd [7] is reported as 0.0486 nM and the koff [7] is reported as 3.69e-05 s⁻¹. For the same binder, the kon [7] was 760000 M⁻¹ s⁻¹.

B4: NRCoV2-S2A4 VHH (VHH)
VHH: QVQLVQSGGGLVQAGGSLRLSCAVSGSPFRSNVMEWYRQAPGKQRELVASISTGGSRTYTDSVKGRFTISRDNAKNEAFLQMNSLKPEDTAVYYCHAAARDSHGIYLLDTWGQGTQVTVSS
With B4 the binding result [8] was “no binding (tested: 40 nM)” and the “End 1st inj (RU)” value [2] was 11.6 RU.
